In publication PMC10245933:
Where two headings read alike, the source gives them in different places.

Legend:
[1] = biological target: NOPLight (human (NOPR part)); experiment: sensor fluorescence in brain slices
[2] = biological target: NOPLight (human (NOPR part)); experiment: sensor fluorescence kinetics
[3] = biological target: NOPLight (human (NOPR part)); experiment: other fluorescence titration
[4] = biological target: NOPLight (human (NOPR part)); experiment: other fluorescence titration; remark: listed apart in the source
[5] = biological target: NOPLight (human (NOPR part)); experiment: other fluorescence titration; remark: listed apart in the source

Substance: endogenous N/OFQ released from PNOC neurons (peptide)
- F/F0 upon CNO-evoked release [1]: 1.6%

Substance: Nociceptin/orphanin-FQ peptide (from UniProt Q13519 130-146)
- τON (time constant of signal activation) [2]: 595 ms
- EC50 [3]: 28.6 nM
- ΔF/F0 upon N/OFQ [3]: 388%
- ΔF/F0 upon N/OFQ [4]: 378%
- EC50 [5]: 42.8 nM
